Assay: soluble on expression in E. coli; label from the status in PepcDB or PDB records

Question: Which “soluble on expression in E. coli” value does the source give for “MPVFRRHASQNCASIPPMMLFKRPDTETLYFALVNKDPAYEGVAYVCVTSTKIFCRFTCTARKPKIENCRFRETITECLEAGFRPCKRCKPMLSYGTPDGTVTALLTALENEPARRWREEDVVALGHDPSTVRRSFKRRFGMSFLEIARLRRVGDAAESLASGEAVIGAQIDAGYESGSGFRSAINQLFGTSPAAMKGRGFLKGDWIDTPIGPMLAVADDHALHLLEFADRPALPAELKRLKARTGADMVLGRTAVTGQIAAELAAYFAGRSGSFETRLAGHGTPFERDVWRNLREIPAGEIVSYSSLATAMERPTAVRAVARANGANQLAIVVPCHRVLGADGSLTGYGGGLWRKKWLIEHERRMARGQMLGMPLASLEHHHHHH” here?
Answer: not soluble

Question: With “MSLGESRKHIDYKKGTINLNGVEYPLNDTNFPTINPENPLELLEEEAELLDKLQASFLGSEKLQKHMQLLFAKGGMYLKYNSNLLFHACIPMEPNGEFSKLYVEDGYYKGKALMDKIDNIVRQAYYDRKNVEVNKKHRDFIWYLWAGRLSPLFGKDVMKTFERYFIDDKSTHKEIKNPYHKLINDEKICDKIFEEFGLNPRTSHIINGHIPVKVKEGESPIKANGKLLIIDGGFSRAYQSTTGIAGYTLTYNSYGMKLASHLKFISKEAAIKDGTDMISSHIIVETKSKRMKVKDTDIGKNIQNQINDLKKLLKAYRIGLIKSNEGHHHHHH” as the sequence, how does the “soluble on expression in E. coli” value read?
Answer: not soluble

Question: For “MTEPGERRRRTTSTATRERGVRDARDAARRAADALSELIRHHLEGVSAVCRGEDGGWIVNVDVLEVARIPDTTSLLATYEVELDPAGDLLQYRRIARYRRGAQDQLEHHHHHH”, which “soluble on expression in E. coli” value is on record?
Answer: not soluble

Question: Which “soluble on expression in E. coli” value does the source give for “MAYFALGLATATKNRDGKIIEAFFPTPILAPSDALVAALAPIAGYQEGNQALDITAAQSAQLAAVFAAHQQAASAAFADKAANAKQPLVLVILASDDKPQSVAEGYLKLQLISHRLVKPHGTVLDGIFGLLHNIAWTNEGPIDLPELAERQIEARLAGRVLTVDCVDKFPKMVDYVVPAGIRIADTSRVRLGAHVGEGTTVMHEGFINFNAGTTGVSMVEGRISAGVVVGNGSDIGGGASIMGTLSGGGKVVVSIGENSLLGANAGLGFPLGDRCTVESGLYVTAGTKVRTLDKDGNQVDIVKARDLAGVSDLLFRRNSLTGQIECLANKSAVELNSELHKNN” here?
Answer: not soluble

Question: For “ASMTGGQQMGRGSGPMLIEFNIPVDLKLVEQQNPKVKLGGRYTPMDGASVHKMALLVPFRDRFEELLQFVPHMTAFLKRQGVAHHIFVLNQVDRFRFNRASLINVGFQFASDVYDYIAMHDVDLLPLNDNLLYEYPSSLGPLHIAGPKLHPKYHYDNFVGGILLVRREHFKQMNGMSNQYWGWGLEDDEFFVRIRDAGLQVTRPQNIKTGTNDTFSHIHNRYHRKRDTQKCFNQKEMTRKRDHKTGLDNVKYKILKVHEMLIDQVPVTILNILLDCDVNKTPWCDCS”, which “soluble on expression in E. coli” value is on record?
Answer: soluble

Question: Which “soluble on expression in E. coli” value does the source give for “MSLENVDPFDIIRQFRSVIAKTSLQASSNIEGLDTVWNSDLVLEANFWHLVEILLSFRTSQEFLDKESSISSKPYNSSIIFEKELLQKDKNLYQIWLIIVWIEGNFPFVEKPSNIPSSKWTNTLVTSGLMSSDLDYPLRDCSVVINDKDKADDHVFYKYVYELLLCGNYDQIFEECKLSDNITLNMIMCGMQEYVDPSIDVQLKDEFEVQQGVKKHSLWRRAVYSLSQNDKLDKYERAIYSYLAGDIPNDEVLQTLNWDSELLVYLNQILKIEVENYLLQNGKVNNEGHHHHHH” here?
Answer: soluble

Question: For “MSLKVAKDLVVSLAYQVRTEDGVLVDESPVSAPLDYLHGHGSLISGLETALEGHEVGDKFDVAVGANDAYGQYDENLVQRVPKDVFMGVDELQVGMRFLAETDQGPVPVEITAVEDDHVVVDGNHMLAGQNLKFNVEVVAIREATEEELAHGHVHGAHDHHHDHDHDGCCGGHGHDHGHEHGGEGCCGGKGNGGCGCEGGSHHHHHH”, which “soluble on expression in E. coli” value is on record?
Answer: soluble

Question: With “VAGDTTITIVGNLTADPELRFTPSGAAVANFTVASTPRIYDRQTGEWKDGEALFLRCNIWREAAENVAESLTRGARVIVSGRLKQRSFETREGEKRTVIEVEVDEIGPSLRYATAKVNKASRSGGFGSGSRPAPAQTSSASGDDPWGSAPASGSFGGGDDEPPF” as the sequence, how does the “soluble on expression in E. coli” value read?
Answer: soluble

Question: With “MAHHHHHHMSTYANSQARLNRVAPQLRPAGVHGDWTEATMAELLSSYNPNGIITPDHIRSFHHRGCDVGEQRRHWGLAKDAPVDPNMRHGVKGKETGGADACLRPEMYADKMTALLDAQLESQYLSNRRKPLGHAPVPRDPVPVPFGGFGITQKKGDSTQSVLAGYRSVDVLHPAGEQLTRNYDWEKAGIDPTQHRFGKPSARSDGTTAAALFNDSATQLTSKLAKDYETTVAKELGKSKRYGFDDPAEWDEEKRGSVTKFGATGTAASYFQTEQPTVRELLSSWAQTASGPRADKAASGKAGQQGLTGSADSAVTAKADASAAAPVASGPSLTEPLKDEARAHQLLYPCHYVSLGVESKYFAGGRPLEDIRRLCHKCSFGLSDADIDAVFVLVAKGGSTCSIEEFKNAARARGYM” as the sequence, how does the “soluble on expression in E. coli” value read?
Answer: not soluble

Question: With “EPQVRESLGRDVMVVVDLSGSMAEPDFTSRTGEKISRLDAAKEVLTEFVQSRKGDRLGLVLFGDAAFVQTPFTADQKVWLELLNQTDVAMAGQSTHLGDAIGLAIKVFEQSDKSRGALEQDQNREKVAIVLTDGNDTGSFVEPIDAAKVAKAKGVRVHVIAMGDPETIGETALDMDTIHRIAKESGGEAFEALNRDELSAAYDEIGKLEPQLYESTTYRPKQSLHH” as the sequence, how does the “soluble on expression in E. coli” value read?
Answer: not soluble

Question: Which “soluble on expression in E. coli” value does the source give for “MGSDKIHHHHHHMHQYTNIKKAIQLSNSFWDVTTAAGMANIATRNLGNGRHEAVASGRQFTNMSSYSYLGLDSHPAILRAAADAVMNTGSLNTSISRIRVQFDILQQAEEALASLVDAETLTVPSCAAAAAATLPLLASGALTGDVAPLMVFDKNAHFCLNMMKPICADETEIQTIRHNDLNALEDLCKTHQRVAYVADGVYSTGGMAPVKELLALQDKYGLFLFFDEAHGLSTLGHLGRGLVLEEMGAINDRTLIVTSLNKGFGASGGAIFLGPRGDAERRKLATRFGGPVTWSQRINTAGLGAIIESVAVHKSAELPALQQKLQDNIRLFDQHVASENSGDRLPIRFVSIGSEERTILYAKSLLEDGYYTSPIFFPVIAKGRAGLRIMIRANMTTEEIERFGACLKQLRASHE” here?
Answer: not soluble

Question: Which “soluble on expression in E. coli” value does the source give for “ITELTNIHLIKGNLQANSKNEVFAELAQMLLENNRISNKEDFLNDIEIRERLSVTSMDGIAYPHSKSKAVTKPAIAVGVKHEGIEYGDEEGIKPTVFFMIASPDNGADHHIYVLQELFGKFSEEFIEDIHNAKNEHQILNISIQS” here?
Answer: soluble

Question: For “MSDLVTKFESLIISKYPVSFTKEQSAQAAQWESVLKSGQIQPHLDQLNLVLRDNTFIVSTLYPTSTDVHVFEVALPLIKDLVASSKDVKSTYTTYRHILRWIDYMQNLLEVSSTDKLEINHDLDLPHEVIEKKKKAPAGGAADAAAKADEDVSKKAKKQDHPRGKPDEETLKKLREEAKAKKAAKKAANAKQQQEQQNKAPEKPKPSAIDFRVGFIQKAIKHPDADSLYVSTIDVGDEEGPRTVCSGLVKHFPLDAMQERYVVVVCNLKPVNMRGIKSTAMVLCGSNDDKVEFVEPPKDSKAGDKVFFEGFGDEAPMKQLNPKKKIWEHLQPHFTTNDGLEVIFKDEEEKDHPVRKLTNAKGESFKVASIANAQVR”, which “soluble on expression in E. coli” value is on record?
Answer: not soluble

Question: Which “soluble on expression in E. coli” value does the source give for “MANTPGGGALIVGIEDKTGRIIGTELDIDWLRQGIFTRIDVAPDVVAKRVLGQRVLAIYVAAAAEPIEDTSDRLRWRVGDSCRPVDLEHHHHHH” here?
Answer: not soluble

Question: With “MKIFENIEDVKAIRKKTGLNQIDFWGKVGVTQSGGSRYETGRKMPKPVRELLRLVHIECIDLAKVNKKDMEIAALLKKHHPDLYAELSKQTKSERKKQS” as the sequence, how does the “soluble on expression in E. coli” value read?
Answer: not soluble

Question: Which “soluble on expression in E. coli” value does the source give for “GAMAMRIYYIGVFRSGGEKALELSEVKDLSQFGFFERSSVGQFMTFFAETVASRTGAGQRQSIEEGNYIGHVYARSEGICGVLITDKEYPVRPAYTLLNKILDEYLVAHPKEEWADVTETNDALKMKQLDTYISKYQDPSQADA” here?
Answer: soluble

Question: For “MEKYIKEQRSICDKYKAEYVESPNDLKLGIAQNVKDGIAPINGLRMPIENGTTGWYIWAGEEMGTEEDFFLPLHVQHIDEWAPEIKKYLGLPPGWRFLIAGDYEDVWYDPNLFDEDLEEDADEWEENMLQEYGWYMHSILAEDIDGIHANYHTHGLRDNFNHQDLQIALNMDPEVAHSVFCTIIEEIKSGKKFEQGIEYTNIIEGYPIIMKSFVEMDREVLRVLLPDERGILPTRPECDECYKTQLDDIEES”, which “soluble on expression in E. coli” value is on record?
Answer: not soluble

Question: Which “soluble on expression in E. coli” value does the source give for “WKQKVGYPTNQTWGYIAEGLFVDDNEVANSPVQFGEYGAGDIKYRDVNKDGKITDLDQVPIGYPKEPEIVYGFGASYGYKNWDISVFFQGLARESFWIDYNNVSPYFNTVDTKVVGNRVGHNALAKFIADSHWSEDNRDAYAVWPRLSPTSIENNSKTSTWFMRDGSFLRLKQLEIGYTIPEKVTNKVGIKNLRFYVTGNNLLCFSKFKLWDPEMAGAGLGYPVQRVYNVGLNLTF” here?
Answer: not soluble

Question: For “MGSDKIHHHHHHMNIPIKTLQCFLTLVETENFTRAAQKCFITQPTLSKIIQRLEESLGETLLIRNNQKVELTQAGQLFEHSAREILGQWHRLQEDMSNLSGLKSGRLRLGVCPMMSSLIIGLLTSYRKRYPGVELQMYEYGGFGCEQALLNNSLDIAFTALPTTHETELINQPLTKYPLLACLPEAHPLAAKSYLSWQDFEPYPFILYNEDFSLAKLINRLSRKAGVQLNIAFRSGQWDFLATMVEADMGLAILPEPICQKLSNSKLVFRPMQPALTWDLALIWRQNLPLTPAANALLELSKQKA”, which “soluble on expression in E. coli” value is on record?
Answer: not soluble

Question: For “MTIPLPGLEVRGSKTGKPIMALLDLLGRTWSLGIIWNLHSGPATFRELQQRCEKISPTLLNTRLKELKTLQLVECQEAGYQLTHQGLDLFDIISPLGSWSSQWAQGLKEDSK”, which “soluble on expression in E. coli” value is on record?
Answer: not soluble

Question: With “NSMAEFQYNLNLEEEKKQLEIENLCFENMKKQMEFTRRARHDLKHHMKAVHTMAENNECKKITEYIETYLEHVSLKKPLVYCTNFTLNALIVYYVQQAEAHKIKLKLNIELPEETNVKEADLTVLFGNLLENAIDACDEVQENKRYINLKIYKPNSDSIVFYIENGFNGSIKKKNQQFLTTKANGNGIGIESVKYVVHKYNGDVNIKTDENKFIVSGVLLQPLDATK” as the sequence, how does the “soluble on expression in E. coli” value read?
Answer: not soluble

Question: For “MGSDKIHHHHHHMSEQKEDLFKPVGEAAAEVEDESIAEQNKANDGVKLTGAQDAMGHPVQEIESLCMNCGKNGTTRLLLTSIPYFREIIIMSFDCPHCGFKNCEIQPASQIQEKGSRYVLKVECREDFNRQVIKSETATCKFVELDIEIPAKRGQLTTVEGLLSEMIDDLSQDQEMRKSIDEALYKKIDDFIQKVKSYINCEPNTIPITFILDDPAGNSWIEYKPGEPQHKWSHTQYVRTDEQNVQVGIITRDQLEQRRQEQLKQLANRERNPSESVKVGSANPQFLSDATDIENFNNEVQTFRASCPSCTQECETHMKPVNIPHFKEVIIMSTVCDHCGYKSNEVKTGGAIPDKGRRITLYCDDAADLSRDILKSETCSMVIPELHLDIQEGTLGGRFTTLEGLLRQVYEELESRIFTQTSDSMDEATKARWVEFFAKLKEAIAGKVKFTVIMEDPLAGSYIQNVYAPDPDPNMTIEDYERTKEQNEDLGLSDIKVE”, which “soluble on expression in E. coli” value is on record?
Answer: not soluble

Question: For “MGSDKIHHHHHHSQERTLFPTEKTDRVPLSVFTSFKADVTTRATAQPLPEGSSIGVFLIADANYTPQSNVKYTCQPDDEWTSETSVWVGGARAGLCAYYPFGKVTFSADIQTQTTLKNQAYTEDADWWYAKDNAAVTVTNLSPEIEFLLEKPYSQLSLEMIRNGRYPLQCKITNVRIELENGESMVDTGTFDIKDGSLQNTTDVTSYSYPTSGPMHDTGLGVGEAARDTTCNYLFVPQILASGLKLTLTIDEREFSVIVPQADLGELIAGKRHVVRLDIRGGIPINIVEVTTKEWQSTSLDGGDATTIKDTTEIIIDGGKVGTEDWASDPTENGSGAL”, which “soluble on expression in E. coli” value is on record?
Answer: not soluble
